Measured values reported in patent US20130005666A1.

Biological target: Neh2-luciferase fusion protein (human; firefly)

Work on “FLAG-labeled Keap1 expressed from an adenovirus” yielded a background luminescence of the Neh2-luc reporter cell line (fold decrease) of 3.5.
